The source of these data is patent US20210340201A1 (published 2021).

Assay [1] concerns the target T1, KRAS G12V peptide on HLA-DRB1*11:01 (human).
T1 peptide: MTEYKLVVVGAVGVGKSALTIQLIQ
The experiment in a line: cytokine release. On the procedure:
(§1) ELISA assays were performed by incubating 50,000 T cells in 96 well round bottom plates with 100,000 autologous B cells or B-LCL lines pulsed with specific concentrations of peptides in RPMI (GIBCO™) supplemented with 5% heat inactivated fetal bovine serum. IFN-γ in supernatants was diluted 1:1, 1:10, and 1:100 and quantitated using human IFN-γ ELISA kit (EBIOSCIENCE™) in technical duplicate or triplicate. HLA blocking experiments were carried out by adding 20 μg/ml antibody anti class I (BIOLEGEND®, cat. 311411) anti HLA DR (BIOLEGEND® clone L243, cat. 307611) or HLA-DQ (ABCAM™, clone spv-I3, cat. ab23632) to the antigen presenting cells one hour prior to adding peptide. ELISpot assays were performed by incubating 20,000-100,000 T cells with 200,000 autologous B cells pulsed with 20 μg/ml of each peptide in CTL medium using the human IFN-γ ELISPOT-PRO™ kit (MABTECH™) according to the manufacturer's instructions. For intracellular IFN-γ staining, PBMC (100,000) were incubated with autologous B cells (100,000) pulsed with the indicated peptides (20 μg/ml) in the presence of brefeldin A (GOLGIPLUG™, BD BIOSCIENCES™) and then fixed and permeabilized using the BD™ intracellular staining kit (BD BIOSCIENCES™) and analyzed using a FACSCANTO™ II flow cytometer.

Assay [2] deals with T2, KRAS G12V peptide on HLA-DRB1*11:04 (human).
T2 peptide: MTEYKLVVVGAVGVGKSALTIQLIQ
Nature of the assay: cytokine release. The method, then:
as §1

B1: KRAS G12V clone 9 TCR (TCR, V domains shown)
Valpha: SVSQHNHHVILSEAASLELGCNYSYGGTVNLFWYVQYPGQHLQLLLKYFSGDPLVKGIKGFEAEFIKSKFSFNLRKPSVQWSDTAEYFCAVTVVNAGNNRKLIWGLGTSLAVNP
Vbeta: AGVIQSPRHEVTEMGQEVTLRCKPISGHDYLFWYRQTMMRGLELLIYFNNNVPIDDSGMPEDRFSAKMPNASFSTLKIQPSEPRDSAVYFCASSLGLPGTDTQYFGPGTRLTVL
B1: the binding result in assay [1] and in assay [2] was “recognises” throughout.

B2: KRAS G12V clone 3 TCR (TCR, V domains shown)
Valpha: AQSVTQPDIHITVSEGASLELRCNYSYGATPYLFWYVQSPGQGLQLLLKYFSGDTLVQGIKGFEAEFKRSQSSFNLRKPSVHWSDAAEYFCAVGRSNSGGYQKVTFGIGTKLQVIP
Vbeta: IHQWPATLVQPVGSPLSLECTVEGTSNPNLYWYRQAAGRGLQLLFYSVGIGQISSEVPQNLSASRPQDRQFILSSKKLLLSDSGFYLCAWSALAGARDTQYFGPGTRLTVL
For B2, the binding result in assay [1] and in assay [2] was “recognises” in each case.
